Reference: patent US20210380678A1 (SURROZEN OPERATING, published 2021)

T1: human ASGR1 extracellular domain (hASGR1 ECD) (human, UniProt P07306 62-291, biotinylated (His-Avi tag))
T1 construct: His-Avi tag at the N-terminus, biotinylated for BLI; also called human ASGR1 ECD
T1 sequence: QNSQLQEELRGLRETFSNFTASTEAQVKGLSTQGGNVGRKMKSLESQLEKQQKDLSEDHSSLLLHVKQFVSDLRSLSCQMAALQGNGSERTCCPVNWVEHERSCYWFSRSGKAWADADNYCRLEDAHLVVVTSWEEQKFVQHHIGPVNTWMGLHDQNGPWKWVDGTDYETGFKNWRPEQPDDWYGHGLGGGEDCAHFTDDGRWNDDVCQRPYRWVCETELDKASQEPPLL

T2: cynomolgus ASGR1 extracellular domain (cynoASGR1 ECD) (cynomolgus, UniProt P07306 62-291 (human entry))
T2 construct: Cloned with a His/Avi tag
T2 chain: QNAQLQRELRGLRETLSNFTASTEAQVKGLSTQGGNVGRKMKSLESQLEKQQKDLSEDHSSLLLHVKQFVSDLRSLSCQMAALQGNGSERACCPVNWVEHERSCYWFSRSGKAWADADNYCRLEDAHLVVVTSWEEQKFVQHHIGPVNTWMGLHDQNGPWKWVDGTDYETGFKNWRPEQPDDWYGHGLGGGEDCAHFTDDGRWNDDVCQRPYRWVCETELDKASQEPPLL


Columns and labels:
[1] = target: T1, human ASGR1 extracellular domain …; assay: hybridoma screening on recombinant ECD
[2] = target: T2, cynomolgus ASGR1 extracellular domain …; assay: hybridoma screening on recombinant ECD

Binder | binding result [1] | binding result [2]
LP1-7B13 (antibody, V domains shown, Hybridoma antibody as screened) VH: EVQLQQSGPEVVKPGASVKMSCKTSGFTFTDYYMNWVKQGHGKSLEWIGRVNPSNDDTRYNQKFKGKATLTVDKSLSTAYMQLNSLTSEDSAVYYCTRWFYFDYWGQGTTLTVSS VL: DIVLTQSPATLSVTPGDRVSLSCRASQSISNYLHWYQQKSHESPRLLIKFASQSISGIPSRFSGSGSGTDFTLTINSVETEDFGMYFCQQSNSWPLTFGAGTKLELK | binds | binds
LP1-3E20 (antibody, V domains shown, Hybridoma antibody as screened) VH: QVQLQQSGAELAKPGASVKMSCKASGYTFTSYWIHWVKQRPGQGLEWIGYINPSSGYAEYNQKFKVRATLTADKSSSTAYMQLSSLTSEDSAVYYCARESYYSFDYTMDYWGQGTSVTVSS VL: DIKMTQSPSSMYASLGERVTITCKASQDINSYLSWFQQKPGKSPKTLIYRANRLVDGVPSRFSGSGSGQDYSLTISSLEYEDMGIYYCLQYDDLWTFGGGTKLEIK | binds | binds
LP1-2I13 (antibody, V domains shown, Hybridoma antibody as screened) VH: EVQLVESGGGLVKPGGSRKLSCAASGFTFSDYGMHWVRQAPEKGLEWVAYISSGSSTIYYADTVKGRFTISRDNAKNTLFLQMTSLRSEDTAMYYCSRKGGFGDYEKSYAMDYWGQGTSVTVSS VL: DIQMTQSPASLSASVGETVTITCRASENIYSYLVWYQQKQGKSPQLLVYNAKTLAEGVPSRFSGSGSGTQFSLKINSLQPEDFGSYYCQHHYGTWTFGGGIKLEIK | binds | binds
LP1-6H3 (antibody, V domains shown, Hybridoma antibody as screened) VH: QAYLQQSGAELVRPGASVKMSCKASGYTFSRFDMHWVKQTPRQGLEWIGVIYPGNGDTSYNQKFRDKASLTVDKSSSTAYMQLSSLTSEDSAVYFCASSYYGNPWGQGTTLTVSS VL: not shown | binds | binds
LP1-1P13 (antibody, V domains shown, Hybridoma antibody as screened) VH: EVQLQQSGPELVKPGASVKISCKASGYSFTDYFMNWVKQSHGKSLEWIGRFNPFNGQTFYNQEFKGKATLTVDKSSSTAHMELRSLTSEDSAVYYCARRGRYDVYYVLDYWGQGTSVTVSS VL: DIQMTQSPASLSASVGQTVIITCRTSENIYSNLAWYQQKQGKSPQLLVYAATNLADGVPSRFSGSGSGTQYYLKINSLQSEDFGSYYCQHFWGSTWTFGGGTKLDIK | binds | binds
LP1-2I22 (antibody, V domains shown, Hybridoma antibody as screened) VH: EVQLQQSGPELVKPGASVKISCKASGYSFTGYFMNWVKQSHGKSLEWIGRFNPFNGQTFYNQEFKGKATLTVDKSSDTAHMELRSLTSEDSAVYYCARRGRYDVYYALDYWGQGTSVTVSS VL: DIQMTQSPASLSASVGETVIITCRASENIYSNLAWYQQKQGKSPQLLVYGATNLADGVTSRFSGSGSGTQFSLKIDSLQSEDFGSYYCQHFWGTTWTFGGGTKLEIK | binds | binds
LP1-2E12 (antibody, V domains shown, Hybridoma antibody as screened) VH: DVQLQESGPGLVKPSQSLSLTCSVTGYSITSGYYWNWIRQFPGNKLEWMGSIGYDDTNHYNPSLKNRISITRDTSKNQFFLKLNSVTTEDTATYYCAGDYPFAFWGQGTLVTVSA VL: DVVVTQTPLSLPVSFGDRVSISCRSSQSLANSYGNTYLSWYLHKPGQSPQLLIYGISNRFSGVPDRFSGSGSGTDFTLKISTIKPEDLGMYYCLQGTHQPLTFGAGTKLELK | binds | binds
LP1-9C3 (antibody, V domains shown, Hybridoma antibody as screened) VH: QVTLKESGPGILQPSQTLSLTCSFSGFSLSTSYMGVSWIRKPSGKGLEWLAHIFWDDDKRYNPSLKSRLTISKDTSSNQVFLMITSVETADTATYYCGGPYYPFTYWGQGTLVTVSA VL: DVVVTQTPLSLPVSFGDQVSISCRSSQSLANSYGNTYLSWYLHKPGQSPQLLIYGISNRFSGVPDRFSGSGSGTDFTLKISTIKPEDLGIYYCLQATHQPWTFGGGTKLEIK | binds | binds
LP1-10C22 (antibody, V domains shown, Hybridoma antibody as screened) VH: EVQLVESGGDLVKPGGSLKLSCAASGFTFSSYGMSWVRQTPDKRLEWVASISSGGSYTYYPDSVKGRFTISRDNAQNTLYLQMSSLKSEDTAMYYCVRHEEYGKSGFAYWGQGTLITVSA VL: DVLMTQTPLSLPVSLGDQASISCRSSQGIVHSNGNIYLEWYLQKPGQSPKLLIYKVSNRFSGVPDRFSGSGSGTDFTLKISRVEAEDLGVYYCFQGSHVPPTFGGGTKLEIK | binds | binds
LP1-8M24 (antibody, V domains shown, Hybridoma antibody as screened) VH: QVQLQQSGAELARPGASVKLSCKASGYTFTNYGINWVKQRTGQGLEWIGEIFPRSDNTFYNEKFKGKATLTADKSSTTAYMELRSLTSEDSAVYFCARKGRDYGTSHYFDYWGQGTTLTVSS VL: DIQMTQSPASLSVSVGETVTITCRISENIYSNLAWYQQKQGKSPHLLVYAAINLADGVPSRFSGSGSGTQFSLKINSLQSEDFGSYYCQHFWGTPFTFGSGTKLEIK | binds | binds

Other lines, results leading:

binding result [1] | binding result [2] | Binder
binds | binds | LP1-1N15 (antibody, V domains shown, Hybridoma antibody as screened) VH: EVQLQQSGPELVKPGASVKMSCKASGYTFTDYYMNWVKQSHGESLEWIGRVIPSNGGTNYNQKFKGKATLTVDKSLTTAYMQLNSLTSEDSAVYFCARGMDYWGPGTSVTVSS VL: DIKMTQSPSSMYASLGERVTITCKASQDINSHLSWFQQKPGKSPKTLIIRANRLVDGVPSRFSGSGSGQDYSLTISSPEYEEMGIYYCLQYDEFPFTFGGGTKLEIK
binds | binds | LP1-9M16 (antibody, V domains shown, Hybridoma antibody as screened) VH: EVQLQQSGPELVKPGASVKMSCKASGYTFTDYYMNWVKQSHGKSLEWIGRVNPNNGGSNYNQKFKGKATLTVDKSLSTAYMQLNSLTSEDSAVYYCASRNFDVWGAGTTVTVSS VL: DIKMTQSPSSMYASLGERVTITCKASQDINSYLSWFQQKPGKSPKTLIYRANRLADGVPSRFSGSGSGQDYSLTISNLEYEDMGIYYCLQYDEFPLTFGAGTKLELK
binds | binds | LP1-1P5 (antibody, V domains shown, Hybridoma antibody as screened) VH: QVQLQQSGPELVRPGTSVKISCKASGYTFLTYWMNWVKQRPGQGLEWIGQIFPATGITYYSEMFKDKATLTEDTSSTTAYMQLSSLTSEATAVYFCARRRAYHSNFFDYWGQGTTLTVSS VL: DIVMTQSQKFMSTSVGDRVSVTCKASQNVGTNVAWYQQKPGQSPKALIYSASYRYSGVPDRFTGSGSGTDFTLTISNVQSEDLAEYFCQQYNSYPLTFGAGTKLELK
binds | binds | LP1-3A24 (antibody, V domains shown, Hybridoma antibody as screened) VH: EVQLQQSGPELVKPGASVKMSCKASGYTFTDYYINWVRQSHGKSLEWIGRVIPSNGGSNYNQKFKGKATLTVDKSLSTAYMHLNSLTSEDSAVYYCATQLGRWGQGTLVTVSA VL: DIVMTQSQKFMSTSVGDRVSVTCKASQNVGSNVAWFQQKPGQSPKALIYSSSYRYSGVPDRFTGSGSGTDFTLTITNVQSEDLAEYFCQQYNSFPLTFGAGTKLELK
binds | binds | LP1-7I20 (antibody, V domains shown, Hybridoma antibody as screened) VH: EVKLVESGGGLVQPGGSLSLSCAASGFTFTDYYMSWVRQPPGKALEWLALIRNKANGYTTEYSASVKGRFTISRDNSQSILYLQMNALRAEDSATYYCAVTYGAYWGQGTLVTVSA VL: DIQMTQSPASLSASVGETVTITCRTSENIYSYLAWYQQKQGKSPQLLVYNAKTLAKGVPSRFSGSGSGTQFSLKINGLQPEDFGNYYCQHHYGTPYTFGGGTKVEIK
